In the supplement of paper PMC6757056:
± gives the standard deviation of the averaged measurements.

B1: library; a variant is named by its letters at N, in order (parent)
chain: GCUGUCACCGAGAAACUGUGAAGUAUAUCUUAAACCUGGGCACUUAAAAGAUAUAUGGAGUUAGUAGUGCAACCUGCUCGGUCUGAUGAGUCCNNNNNNGGACGAAACAGC

Experiments:
cyclic di-GMP [1] = variants of: B1; assay: FACS-Seq fitted mean relative fluorescence mCherry/BFP without ligand (log10 relative fluorescence); HEK293T; ligand: cyclic di-GMP (c-di-GMP-II aptamer); higher = higher reporter protein expression; conditions: ligand present: no
Outline: (§1)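 Fluorescence figures are normalized fitted normal means of sequenced bin counts. Enriched, lentivirally transduced HEK293T libraries with a ribozyme-switch mCherry reporter and EF1α-BFP were held 48 h with or without ligand, then sorted into 6 mCherry/BFP bins. PCR-amplified, barcoded genomic DNA from each bin was sequenced on MiSeq. Means of log10(mCherry/BFP) were scaled to five spiked-in control ribozymes.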

cyclic di-GMP [2] = variants of: B1; assay: normalized RNA/DNA level without ligand (relative to sTRSVctl = 100) (log10 (% of sTRSVctl)); HEK293T; ligand: cyclic di-GMP (c-di-GMP-II aptamer); higher = less ribozyme self-cleavage, higher mRNA level; conditions: reporter: mCherry (pCS4076), ligand present: no
Method: (§2)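 Hammerhead (sTRSV) ribozyme switch libraries with a ligand aptamer grafted on stem I and a randomized N4-6 loop II, cloned into the 3' UTR of mCherry and transiently transfected into HEK293T cells; RNA-Seq 72 h post transfection with ligand added 1 h before transfection; RNA read count / plasmid DNA read count normalized to the non-cleaving sTRSVctl (x100), log10; sequences with >100 DNA reads. FACS-Seq: lentiviral library sorted into 6 bins after 48 h ligand, log-normal fit mean of mCherry/BFP scaled to controls. Printed sequences are partial switch sequences.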

cyclic di-GMP [3] = variants of: B1; assay: FACS-Seq fitted mean relative fluorescence mCherry/BFP with ligand (log10 relative fluorescence); HEK293T; ligand: cyclic di-GMP (c-di-GMP-II aptamer); ligand concentration (+) FACS-Seq: 1 mM; higher = higher reporter protein expression; conditions: ligand present: yes
Outline: as §1

cyclic di-GMP [4] = variants of: B1; assay: normalized RNA/DNA level with ligand (relative to sTRSVctl = 100) (log10 (% of sTRSVctl)); HEK293T; ligand: cyclic di-GMP (c-di-GMP-II aptamer); ligand concentration (+) RNA-Seq: 1 mM; higher = less ribozyme self-cleavage, higher mRNA level; conditions: reporter: mCherry (pCS4076), ligand present: yes
Method: as §2

Row | Variant | FACS-Seq fitted mean (log10) (cyclic di-GMP [1]) | normalized RNA/DNA level without ligand (log10) (cyclic di-GMP [2]) | FACS-Seq fitted mean (log10) (cyclic di-GMP [3]) | normalized RNA/DNA level with ligand (log10) (cyclic di-GMP [4])
1 | UAUAAA | -0.114 ± 0.051 | 1.66 ± 0.026 | 0.111 ± 0.097 | 1.79 ± 0.13
2 | AAGGAA | -0.627 ± 0.048 | 1.35 ± 0.13 | -0.409 ± 0.03 | 1.51 ± 0.069
3 | UAUAGU | -0.943 ± 0.17 | 1.65 ± 0.03 | -0.713 ± 0.099 | 1.79 ± 0.068
4 | UAUAGC | -0.313 ± 0.039 | 1.73 ± 0.044 | -0.0839 ± 0.078 | 1.83 ± 0.19
5 | UAUAGA | -0.453 ± 0.17 | 1.65 ± 0.021 | -0.265 ± 0.034 | 1.81 ± 0.15
6 | AAUUGG | 0.0192 ± 0.091 | 1.59 ± 0.068 | 0.141 ± 0.0084 | 1.74 ± 0.13
7 | UAUGUA | -0.622 ± 0.023 | 1.668 ± 0.0069 | -0.405 ± 0.035 | 1.84 ± 0.08
8 | UCAAUA | -0.525 ± 0.048 | 1.4 ± 0.085 | -0.157 ± 0.078 | 1.63 ± 0.089
9 | UAUGAU | -0.525 ± 0.18 | 1.597 ± 0.0092 | -0.0494 ± 0.041 | 1.79 ± 0.12
10 | UAUGAC | -0.234 ± 0.026 | 1.71 ± 0.057 | 0.133 ± 0.1 | 1.87 ± 0.1
11 | UAUGAA | -0.265 ± 0.024 | 1.64 ± 0.018 | -0.0026 ± 0.016 | 1.78 ± 0.08
12 | AAGAUA | -0.4038 ± 0.0036 | 1.42 ± 0.094 | -0.0468 ± 0.065 | 1.63 ± 0.063
13 | AAGAGA | -0.637 ± 0.058 | 1.33 ± 0.078 | -0.296 ± 0.066 | 1.54 ± 0.094
14 | AAGAGG | -0.546 ± 0.022 | 1.53 ± 0.052 | -0.313 ± 0.016 | 1.68 ± 0.15
15 | AAUACG | -0.6 ± 0.066 | 1.6 ± 0.058 | -0.2 ± 0.094 | 1.78 ± 0.06
16 | GCAAUA | -0.419 ± 0.034 | 1.41 ± 0.079 | -0.0479 ± 0.074 | 1.63 ± 0.058
17 | GCAAUC | -0.612 ± 0.083 | 1.27 ± 0.1 | -0.425 ± 0.016 | 1.52 ± 0.1
18 | GAGCGU | -1.38 ± 0.089 | 1.814 ± 0.0041 | -1.2 ± 0.013 | 1.9 ± 0.052
19 | GAGCGC | -0.228 ± 0.14 | 1.79 ± 0.049 | -0.101 ± 0.16 | 1.83 ± 0.082
20 | AAGCGA | -0.459 ± 0.0051 | 1.44 ± 0.1 | -0.202 ± 0.029 | 1.65 ± 0.13
21 | AAGGGG | -0.499 ± 0.044 | 1.47 ± 0.087 | -0.103 ± 0.12 | 1.63 ± 0.1
22 | AAGGGU | -0.547 ± 0.0094 | 1.53 ± 0.091 | -0.278 ± 0.052 | 1.7 ± 0.061
23 | AAGGGA | -0.6377 ± 0.005 | 1.38 ± 0.072 | -0.444 ± 0.023 | 1.5 ± 0.13
24 | GAGUUG | -0.0245 ± 0.095 | 1.8 ± 0.04 | 0.211 ± 0.021 | 1.92 ± 0.12

Row | Variant | FACS-Seq fitted mean (log10) (cyclic di-GMP [1]) | normalized RNA/DNA level without ligand (log10) (cyclic di-GMP [2]) | FACS-Seq fitted mean (log10) (cyclic di-GMP [3]) | normalized RNA/DNA level with ligand (log10) (cyclic di-GMP [4])
25 | GAGUUA | -0.199 ± 0.084 | 1.74 ± 0.033 | -0.129 ± 0.019 | 1.82 ± 0.14
26 | CAGAUA | -0.713 ± 0.024 | 1.23 ± 0.053 | -0.483 ± 0.0048 | 1.43 ± 0.065
27 | CAGCAA | -0.468 ± 0.048 | 1.36 ± 0.094 | -0.2496 ± 0.00056 | 1.51 ± 0.061
28 | UAUUCU | -0.432 ± 0.069 | 1.7467 ± 0.0014 | -0.275 ± 0.051 | 1.89 ± 0.094
29 | GCAACA | -0.823 ± 0.12 | 1.55 ± 0.048 | -0.56 ± 0.014 | 1.75 ± 0.12
30 | GAUGUA | -0.456 ± 0.056 | 1.662 ± 0.0051 | -0.166 ± 0.016 | 1.77 ± 0.11
31 | UAUUAA | -0.387 ± 0.054 | 1.7 ± 0.039 | -0.126 ± 0.13 | 1.87 ± 0.12
32 | UAUUAC | -0.992 ± 0.17 | 1.77 ± 0.039 | -0.849 ± 0.071 | 1.87 ± 0.095
33 | UAGGCU | -0.161 ± 0.14 | 1.75 ± 0.031 | 0.0436 ± 0.011 | 1.88 ± 0.11
34 | CAUUAA | -0.604 ± 0.025 | 1.26 ± 0.11 | -0.31552 ± 2.8e-05 | 1.46 ± 0.12
35 | CAUUAU | -0.4943 ± 0.0018 | 1.54 ± 0.098 | -0.353 ± 0.08 | 1.71 ± 0.1
36 | GAUCAA | -0.23 ± 0.07 | 1.57 ± 0.054 | 0.0757 ± 0.065 | 1.75 ± 0.052
37 | GAUCAU | -0.326 ± 0.12 | 1.63 ± 0.051 | -0.0439 ± 0.023 | 1.79 ± 0.14
38 | UCAAAA | -0.275 ± 0.04 | 1.46 ± 0.037 | -0.0447 ± 0.01 | 1.68 ± 0.15
39 | AAGGUA | -0.681 ± 0.028 | 1.4 ± 0.091 | -0.372 ± 0.038 | 1.57 ± 0.13
40 | AAGGUU | -0.341 ± 0.089 | 1.59 ± 0.022 | -0.152 ± 0.091 | 1.8 ± 0.1
41 | AAGGUG | -0.189 ± 0.0061 | 1.51 ± 0.072 | 0.04 ± 0.083 | 1.69 ± 0.11
42 | UAGUAU | -0.121 ± 0.12 | 1.61 ± 0.028 | 0.192 ± 0.1 | 1.78 ± 0.064
43 | CAGCCA | -0.196 ± 0.089 | 1.42 ± 0.05 | 0.0333 ± 0.08 | 1.67 ± 0.14
44 | AAUAAA | -0.411 ± 0.041 | 1.47 ± 0.097 | -0.166 ± 0.054 | 1.69 ± 0.069
45 | GAUGGA | -0.376 ± 0.014 | 1.42 ± 0.14 | -0.11 ± 0.031 | 1.61 ± 0.097
46 | CAUCUC | -0.977 ± 0.064 | 1.74 ± 0.051 | -0.802 ± 0.028 | 1.86 ± 0.11
47 | AAUGGC | -0.236 ± 0.066 | 1.65 ± 0.033 | 0.153 ± 0.011 | 1.81 ± 0.061
48 | AAUGGG | -0.71 ± 0.015 | 1.4 ± 0.11 | -0.453 ± 0.035 | 1.57 ± 0.076

Row | Variant | FACS-Seq fitted mean (log10) (cyclic di-GMP [1]) | normalized RNA/DNA level without ligand (log10) (cyclic di-GMP [2]) | FACS-Seq fitted mean (log10) (cyclic di-GMP [3]) | normalized RNA/DNA level with ligand (log10) (cyclic di-GMP [4])
49 | AAUGGA | -0.46 ± 0.012 | 1.36 ± 0.11 | -0.114 ± 0.0052 | 1.55 ± 0.066
50 | CAUUUA | -0.573 ± 0.012 | 1.32 ± 0.088 | -0.291 ± 0.0053 | 1.51 ± 0.1
51 | CAUAUA | -0.483 ± 0.05 | 1.3 ± 0.14 | -0.237 ± 0.014 | 1.51 ± 0.097
52 | GAGCUG | 0.303 ± 0.085 | 1.82 ± 0.078 | 0.439 ± 0.013 | 1.89 ± 0.1
53 | CAUAGU | -0.641 ± 0.058 | 1.72 ± 0.025 | -0.575 ± 0.046 | 1.85 ± 0.066
54 | AAUGUU | -0.4781 ± 0.0039 | 1.66 ± 0.034 | -0.144 ± 0.16 | 1.82 ± 0.076
55 | AAUGUG | 0.000386 ± 0.089 | 1.58 ± 0.051 | 0.206 ± 0.026 | 1.76 ± 0.09
56 | UAGUCC | 0.148 ± 0.14 | 1.72 ± 0.1 | 0.203 ± 0.041 | 1.85 ± 0.086
57 | CAGGAA | -0.629 ± 0.038 | 1.4 ± 0.099 | -0.392 ± 0.12 | 1.51 ± 0.051
58 | GAGUAG | -0.7206 ± 0.0025 | 1.84 ± 0.075 | -0.563 ± 0.061 | 1.89 ± 0.12
59 | GAGUAA | -0.0125 ± 0.15 | 1.71 ± 0.027 | 0.165 ± 0.029 | 1.81 ± 0.069
60 | UAGUUG | 0.116 ± 0.21 | 1.7 ± 0.05 | 0.29 ± 0.039 | 1.81 ± 0.082
61 | UAGUUU | -0.234 ± 0.073 | 1.675 ± 0.0087 | 0.0254 ± 0.084 | 1.85 ± 0.081
62 | CAUCAA | -0.3769 ± 0.0032 | 1.32 ± 0.035 | -0.0581 ± 0.076 | 1.57 ± 0.057
63 | ACAAUA | -0.5113 ± 0.0047 | 1.33 ± 0.094 | -0.23 ± 0.047 | 1.55 ± 0.14
64 | ACAAUC | -0.873 ± 0.017 | 1.49 ± 0.043 | -0.61 ± 0.16 | 1.7 ± 0.15
65 | GAGACU | -0.22 ± 0.13 | 1.791 ± 0.013 | -0.00318 ± 0.073 | 1.87 ± 0.12
66 | UAUAUC | -0.579 ± 0.13 | 1.71 ± 0.018 | -0.583 ± 0.2 | 1.85 ± 0.12
67 | ACAAGU | -0.519 ± 0.012 | 1.42 ± 0.039 | -0.19187 ± 0.00017 | 1.63 ± 0.13
68 | ACAAGC | -0.263 ± 0.13 | 1.44 ± 0.045 | -0.052 ± 0.14 | 1.7 ± 0.12
69 | ACAAGA | -0.604 ± 0.026 | 1.26 ± 0.14 | -0.428 ± 0.022 | 1.46 ± 0.023
70 | GAUCGA | -0.635 ± 0.0097 | 1.64 ± 0.033 | -0.425 ± 0.16 | 1.78 ± 0.094
71 | GAUGCA | 0.17 ± 0.18 | 1.83 ± 0.066 | 0.358 ± 0.026 | 1.9 ± 0.12
